# Molecular target: the molecule itself
# Test: cryo-EM structure; detergent-purified protein (6 mg/mL) incubated with 100 μM CPIII, 2 mM MgCl2, 2 mM ATP and 2 mM sodium orthovanadate for 30 min at 22 °C; single-particle analysis
Protein,binding result,stoichiometry N
"core region of human ABCB6 (residues 206-842, without TMD0) (domain or fragment, UniProt Q9NP58 206-842, looked up, Homodimer in the cryo-EM maps; also called hABCB6^core; ABCB6^core; not shown: eGFP, C-terminal, cleaved; 10×His, C-terminal, cleaved) APGLRPQSYTLQVHEEDQDVERSQVRSAAQQSTWRDFGRKLRLLSGYLWPRGSPALQLVVLICLGLMGLERALNVLVPIFYRNIVNLLTEKAPWNSLAWTVTSYVFLKFLQGGGTGSTGFVSNLRTFLWIRVQQFTSRRVELLIFSHLHELSLRWHLGRRTGEVLRIADRGTSSVTGLLSYLVFNVIPTLADIIIGIIYFSMFFNAWFGLIVFLCMSLYLTLTIVVTEWRTKFRRAMNTQENATRARAVDSLLNFETVKYYNAESYEVERYREAIIKYQGLEWKSSASLVLLNQTQNLVIGLGLLAGSLLCAYFVTEQKLQVGDYVLFGTYIIQLYMPLNWFGTYYRMIQTNFIDMENMFDLLKEETEVKDLPGAGPLRFQKGRIEFENVHFSYADGRETLQDVSFTVMPGQTLALVGPSGAGKSTILRLLFRFYDISSGCIRIDGQDISQVTQASLRSHIGVVPQDTVLFNDTIADNIRYGRVTAGNDEVEAAAQAAGIHDAIMAFPEGYRTQVGERGLKLSGGEKQRVAIARTILKAPGIILLDEATSALDTSNERAIQASLAKVCANRTTIVVAHRLSTVVNADQILVIKDGCIVERGRHEALLSRGGVYADMWQLQQGQEETSEDTKPQTMER",binds,–
"hABCB6^core-W546A mutant (domain or fragment, human, UniProt Q9NP58 206-842, looked up, Homodimer in the cryo-EM structures; Used in detergent micelles and in nanodiscs (porcine brain polar lipids, hApoA-I (Δ1-43) scaffold); source: also reconstituted into nanodiscs; not shown: eGFP, C-terminal, cleaved; 10×His, C-terminal, cleaved) APGLRPQSYTLQVHEEDQDVERSQVRSAAQQSTWRDFGRKLRLLSGYLWPRGSPALQLVVLICLGLMGLERALNVLVPIFYRNIVNLLTEKAPWNSLAWTVTSYVFLKFLQGGGTGSTGFVSNLRTFLWIRVQQFTSRRVELLIFSHLHELSLRWHLGRRTGEVLRIADRGTSSVTGLLSYLVFNVIPTLADIIIGIIYFSMFFNAWFGLIVFLCMSLYLTLTIVVTEWRTKFRRAMNTQENATRARAVDSLLNFETVKYYNAESYEVERYREAIIKYQGLEWKSSASLVLLNQTQNLVIGLGLLAGSLLCAYFVTEQKLQVGDYVLFGTYIIQLYMPLNAFGTYYRMIQTNFIDMENMFDLLKEETEVKDLPGAGPLRFQKGRIEFENVHFSYADGRETLQDVSFTVMPGQTLALVGPSGAGKSTILRLLFRFYDISSGCIRIDGQDISQVTQASLRSHIGVVPQDTVLFNDTIADNIRYGRVTAGNDEVEAAAQAAGIHDAIMAFPEGYRTQVGERGLKLSGGEKQRVAIARTILKAPGIILLDEATSALDTSNERAIQASLAKVCANRTTIVVAHRLSTVVNADQILVIKDGCIVERGRHEALLSRGGVYADMWQLQQGQEETSEDTKPQTMER",–,2

# — article PMC10514269, “W546 stacking disruption traps the human porphyrin transporter ABCB6 in an outward-facing transient state” (Communications Biology, 2023)
